# Laboratory results as given in paper doi:10.1101/2024.10.04.616715 (bioRxiv, 2024).
# Biological target: the molecule itself
# Assay: cryo-EM structure
protein,measurement,value
"human XPR1 (Xenotropic and Polytropic Retrovirus Receptor 1) (natural protein, UniProt Q9UBH6 1-696, looked up) MKFAEHLSAHITPEWRKQYIQYEAFKDMLYSAQDQAPSVEVTDEDTVKRYFAKFEEKFFQTCEKELAKINTFYSEKLAEAQRRFATLQNELQSSLDAQKESTGVTTLRQRRKPVFHLSHEERVQHRNIKDLKLAFSEFYLSLILLQNYQNLNFTGFRKILKKHDKILETSRGADWRVAHVEVAPFYTCKKINQLISETEAVVTNELEDGDRQKAMKRLRVPPLGAAQPAPAWTTFRVGLFCGIFIVLNITLVLAAVFKLETDRSIWPLIRIYRGGFLLIEFLFLLGINTYGWRQAGVNHVLIFELNPRSNLSHQHLFEIAGFLGILWCLSLLACFFAPISVIPTYVYPLALYGFMVFFLINPTKTFYYKSRFWLLKLLFRVFTAPFHKVGFADFWLADQLNSLSVILMDLEYMICFYSLELKWDESKGLLPNNSEESGICHKYTYGVRAIVQCIPAWLRFIQCLRRYRDTKRAFPHLVNAGKYSTTFFMVTFAALYSTHKERGHSDTMVFFYLWIVFYIISSCYTLIWDLKMDWGLFDKNAGENTFLREEIVYPQKAYYYCAIIEDVILRFAWTIQISITSTTLLPHSGDIIATVFAPLEVFRRFVWNFFRLENEHLNNCGEFRAVRDISVAPLNADDQTLLEQMMDQDDGVRNRQKNRSWKYNQSISLRRPRLASQSKARDTKVLIEDTDDEANT",stoichiometry N,2
